According to US20240059790A1 (JANUX THERAPEUTICS, published 2024):

Target: T1, polypeptide complex 1 (PC-1)
T1 construct: also called Intact PC-1; uncleaved PC-1
Experiment: ELISA ('Cyno Albumin ELISA')

B1: cynomolgus monkey albumin (other)
chain: DTHKSEVAHRFKDLGEEHFKGLVLVAFSQYLQQCPFEEHVKLVNEVTEFAKTCVADESAENCDKSLHTLFGDKLCTVATLRETYGEMADCCAKQEPERNECFLQHKDDNPNLPPLVRPEVDVMCTAFHDNEATFLKKYLYEVARRHPYFYAPELLFFAARYKAAFAECCQAADKAACLLPKLDELRDEGKASSAKQRLKCASLQKFGDRAFKAWAVARLSQKFPKAEFAEVSKLVTDLTKVHTECCHGDLLECADDRADLAKYMCENQDSISSKLKECCDKPLLEKSHCLAEVENDEMPADLPSLAADYVESKDVCKNYAEAKDVFLGMFLYEYARRHPDYSVMLLLRLAKAYEATLEKCCAAADPHECYAKVFDEFQPLVEEPQNLVKQNCELFEQLGEYKFQNALLVRYTKKVPQVSTPTLVEVSRNLGKVGAKCCKLPEAKRMPCAEDYLSVVLNRLCVLHEKTPVSEKVTKCCTESLVNRRPCFSALELDEAYVPKAFNAETFTFHADMCTLSEKEKQVKKQTALVELVKHKPKATKEQLKGVMDNFAAFVEKCCKADDKEACFAEEGPKFVAASQAALA
notes: Antigen immobilized on the ELISA plate
B1: binds.
